What was measured:
Assay type in all cases: cell-based, mouse
[1] = test system: IL-13 mRNA in LN cells; test: IL-13 mRNA by real-time PCR in LN cells of GA-immunized CD-1, BALB/cByJ, SJL/J mice (Example III); conditions: 6 hours
Procedure: (§1) On Day 0, mice were immunized with 250 μg GA (GMA, Mylan Pharmaceuticals, Inc.) and CFA. The GA solution (20 mg/mL) was diluted with Dulbecco's Phosphate-Buffered Saline to 5 mg/mL. The dosing formulation consisted of equal volumes of the diluted GA solution (5 mg/mL) and CFA solution, mixed until well-emulsified. Animals were weighed and allocated to groups. Animals were dosed by injection into four footpads. The injection volume per animal was 0.1 mL (about 10 μL into each front footpad, and 40 μL into each hind footpad).
(§2) Immunized animals were euthanized by cervical dislocation on Day 10 post-immunization. Lymph node cells were isolated from animals and treated with Myelin Basic Protein (MBP, a negative control), Concanavalin A (ConA, a positive control) or GA as shown in Table 16. Lymph nodes in the axillary and popliteal regions were removed aseptically in a purifier clean bench. […] The LN were then washed 3 times with −5 mL of RPMI medium, and isolated by pressing the LN with a syringe plunger. […] The cell suspension was centrifuged at about 200×g for 10 minutes at about 4° C. and re-suspended in ice cold enriched DCCM-1 medium. Cells were seeded in 96-well tissue culture plates.
(§3) LN cells isolated from GA-immunized animals were stimulated with GA (GMA, Mylan Pharmaceuticals, Inc.) at concentrations as indicated in Tables 16 and 17. A positive control was prepared by treating LN cells with 2.5 μg/mL concavalin A (ConA, a non-specific T cell stimulant). Myelin basic protein (MBP, 10 μg/mL) and enriched DCCM-1 medium served as negative controls. The cells from all groups each were stimulated with the same GA lot. Each reaction was set up in triplicate.
(§4) After incubation at about 37° C. in a humidified CO2 incubator for 6 hours, the cells were lysed for total RNA isolation. Total RNA was isolated from treated LN cells using SV 96 Total RNA Isolation System according to the manufacturer's protocol (Promega, Cat. #Z3500). Cells were washed once with Phosphate Buffered Saline (PBS) and lysed in RNA lysis buffer. The lysate was transferred to wells of the SV 96 binding plate. Samples were washed with RNA wash solution and treated with DNase. Total RNA was eluted with nuclease-free water from the binding plate.
(§5) After the reverse transcriptase reaction was completed, cDNA samples were used directly for real-time PCR to measure the response biomarker mRNA levels produced by the stimulated cells. […] All probes for target genes contained FAM dye, and probes for the internal control contained VIC®/MGB dye. Samples will be prepared and run in 96-well plates using a Real-Time PCR system (7500, Life Technologies). This system allows direct detection of PCR-product formation by measuring the increase in fluorescent emission continuously during the PCR reaction. A relative quantitation method was used to analyze changes in mouse IL-2, IL-4, IL-5, IL-10, IL-13, IFN-γ and TNF-α expression in GA-treated samples relative to the untreated control (enriched DCCM-1 treated) samples. The Real-Time PCR program was:
(§6) The levels of mouse cytokine amplicons (IL-2, IL-4, IL-5, IL-10, IL-13, mIFN-γ and TNF-α) were normalized to internal probe levels (GAPDH) from the same samples. The following equations were used to calculate the relative increase in response to GA stimulation compared to the control sample: ΔCT=CT_target−CT_reference ΔΔCT=−ΔCT_Treated−CT_VC

[2] = test system: KC (CXCL1) secreted by LN cells; test: KC (CXCL1) secretion by GA-stimulated LN cells, MSD 9-plex ELISA (Example II); conditions: for KC secretion response ratio (treated cell medium to control DCCM1 medium): 21 hr
[3] = test system: IFN-γ secreted by LN cells; test: IFN-γ secretion by GA-stimulated LN cells, MSD ELISA, 21 and 45 hr (Example II)
[4] = test system: IL-10 mRNA in LN cells; test: IL-10 mRNA by real-time PCR in LN cells of GA-immunized CD-1, BALB/cByJ, SJL/J mice (Example III); conditions: 6 hours
Procedure: as §1, §2, §3, §4, §5, §6

[5] = test system: IL-2 secreted by LN cells; test: IL-2 secretion by GA-stimulated LN cells, MSD 9-plex ELISA (Example II); conditions: for IL-2 secretion response ratio (treated cell medium to control DCCM1 medium): 21 hr
[6] = Group 1C: CD-1, GA-immunized, stimulation 0.3 μg/mL
[7] = Group 1C: CD-1, GA-immunized, stimulation 1 μg/mL
[8] = Group 1C: CD-1, GA-immunized, stimulation 3 μg/mL
[9] = Group 1C: CD-1, GA-immunized, stimulation 10 μg/mL
[10] = Group 2C: BALB/cByJ, GA-immunized, stimulation 0.3 μg/mL
[11] = Group 2C: BALB/cByJ, GA-immunized, stimulation 1 μg/mL
[12] = Group 2C: BALB/cByJ, GA-immunized, stimulation 3 μg/mL
[13] = Group 2C: BALB/cByJ, GA-immunized, stimulation 10 μg/mL
[14] = Group 3C: SJL/J, GA-immunized, stimulation 0.3 μg/mL
[15] = Group 3C: SJL/J, GA-immunized, stimulation 1 μg/mL
[16] = Group 3C: SJL/J, GA-immunized, stimulation 3 μg/mL
[17] = Group 3C: SJL/J, GA-immunized, stimulation 10 μg/mL
[18] = LN cells from each of the three mouse strains
[19] = BALB/cByJ, immunized GA Lower Limb
[20] = C57BL10J, immunized GA Intraplantar
[21] = C57BL10J, immunized GA Lower Limb

Molecule: L-glutamic acid polymer with L-alanine, L-lysine and L-tyrosine, acetate (salt) [GA]
- IL-13 mRNA Expression [1, 6]: 1.7 fold change vs control
- IL-13 mRNA Expression [1, 7]: 3.3 fold change vs control
- IL-13 mRNA Expression [1, 8]: 9.4 fold change vs control
- IL-13 mRNA Expression [1, 9]: 12.3 fold change vs control
- IL-13 mRNA Expression [1, 10]: 3.2 fold change vs control
- IL-13 mRNA Expression [1, 11]: 9.1 fold change vs control
- IL-13 mRNA Expression [1, 12]: 12.4 fold change vs control
- IL-13 mRNA Expression [1, 13]: 12.6 fold change vs control
- IL-13 mRNA Expression [1, 14]: 1.7 fold change vs control
- IL-13 mRNA Expression [1, 15]: 7.3 fold change vs control
- IL-13 mRNA Expression [1, 16]: 12.9 fold change vs control
- IL-13 mRNA Expression [1, 17]: 20.0 fold change vs control
- KC secretion, dose response to GA (in words) ([2]; cells from any of the three mouse strains): No dose response
- IFN-γ secretion, dose response to GA (in words) [3, 18]: dose-dependent manner
- IL-10 mRNA Expression [4, 6]: 0.7 fold change vs control
- IL-10 mRNA Expression [4, 7]: 0.8 fold change vs control
- IL-10 mRNA Expression [4, 8]: 0.9 fold change vs control
- IL-10 mRNA Expression [4, 9]: 0.9 fold change vs control
- IL-10 mRNA Expression [4, 10]: 0.7 fold change vs control
- IL-10 mRNA Expression [4, 11]: 1.0 fold change vs control
- IL-10 mRNA Expression [4, 12]: 1.3 fold change vs control
- IL-10 mRNA Expression [4, 13]: 1.3 fold change vs control
- IL-10 mRNA Expression [4, 14]: 0.5 fold change vs control
- IL-10 mRNA Expression [4, 15]: 0.6 fold change vs control
- IL-10 mRNA Expression [4, 16]: 0.5 fold change vs control
- IL-10 mRNA Expression [4, 17]: 0.8 fold change vs control
- IL-2 secretion, dose response to GA (in words) [5, 18]: dose-dependent manner

B1: MBP: myelin basic protein, a negative control (protein, UniProt P02686 1-304, looked up)
Myelin basic protein: MGNHAGKRELNAEKASTNSETNRGESEKKRNLGELSRTTSEDNEVFGEADANQNNGTSSQDTAVTDSKRTADPKNAWQDAHPADPGSRPHLIRLFSRDAPGREDNTFKDRPSESDELQTIQEDSAATSESLDVMASQKRPSQRHGSKYLATASTMDHARHGFLPRHRDTGILDSIGRFFGGDRGAPKRGSGKDSHHPARTAHYGSLPQKSHGRTQDENPVVHFFKNIVTPRTPPPSQGKGRGLSLSRFSWGAEGQRPGFGYGGRASDYKSAHKGFKGVDAQGTLSKIFKLGGRDSRSGSPMARR
- IL-13 mRNA Expression [1, 9]: 1.5 fold change vs control
- IL-13 mRNA Expression [1, 13]: 0.8 fold change vs control
- IL-13 mRNA Expression [1, 17]: 0.6 fold change vs control
- KC secretion response ratio (treated cell medium to control DCCM1 medium) [2, 19]: 1.02
- KC secretion response ratio (treated cell medium to control DCCM1 medium) [2, 20]: 1.00
- KC secretion response ratio (treated cell medium to control DCCM1 medium) [2, 21]: 1.04
- KC secretion response ratio (treated cell medium to control DCCM1 medium) ([2]; CD-1, immunized GA Lower Limb): 1.08
- IFN-γ secretion response ratio (treated cell medium to control DCCM1 medium) ([3]; BALB/cByJ, immunized GA Intraplantar, 21 hr): 0.87
- IFN-γ secretion response ratio (treated cell medium to control DCCM1 medium) ([3]; BALB/cByJ, immunized GA Intraplantar, 45 hr): 0.83
- IFN-γ secretion response ratio (treated cell medium to control DCCM1 medium) ([3]; BALB/cByJ, immunized GA Lower Limb, 21 hr): 0.80
- IFN-γ secretion response ratio (treated cell medium to control DCCM1 medium) ([3]; BALB/cByJ, immunized GA Lower Limb, 45 hr): 0.92
- IFN-γ secretion response ratio (treated cell medium to control DCCM1 medium) ([3]; BALB/cByJ, immunized Mannitol Intraplantar, 21 hr): 1.17
- IFN-γ secretion response ratio (treated cell medium to control DCCM1 medium) ([3]; BALB/cByJ, immunized Mannitol Intraplantar, 45 hr): 0.92
- IFN-γ secretion response ratio (treated cell medium to control DCCM1 medium) ([3]; C57BL10J, immunized GA Intraplantar, 21 hr): 1.03
- IFN-γ secretion response ratio (treated cell medium to control DCCM1 medium) ([3]; C57BL10J, immunized GA Intraplantar, 45 hr): 1.07
- IFN-γ secretion response ratio (treated cell medium to control DCCM1 medium) ([3]; C57BL10J, immunized GA Lower Limb, 21 hr): 1.60
- IFN-γ secretion response ratio (treated cell medium to control DCCM1 medium) ([3]; C57BL10J, immunized GA Lower Limb, 45 hr): 1.80
- IFN-γ secretion response ratio (treated cell medium to control DCCM1 medium) ([3]; C57BL10J, immunized Mannitol Intraplantar, 21 hr): 2.02
- IFN-γ secretion response ratio (treated cell medium to control DCCM1 medium) ([3]; C57BL10J, immunized Mannitol Intraplantar, 45 hr): 1.41
- IFN-γ secretion response ratio (treated cell medium to control DCCM1 medium) ([3]; CD-1, immunized GA Intraplantar, 21 hr): 1.06
- IFN-γ secretion response ratio (treated cell medium to control DCCM1 medium) ([3]; CD-1, immunized GA Intraplantar, 45 hr): 0.89
- IFN-γ secretion response ratio (treated cell medium to control DCCM1 medium) ([3]; CD-1, immunized GA Lower Limb, 21 hr): 0.90
- IFN-γ secretion response ratio (treated cell medium to control DCCM1 medium) ([3]; CD-1, immunized GA Lower Limb, 45 hr): 2.11
- IFN-γ secretion response ratio (treated cell medium to control DCCM1 medium) ([3]; CD-1, immunized Mannitol Intraplantar, 21 hr): 1.57
- IFN-γ secretion response ratio (treated cell medium to control DCCM1 medium) ([3]; CD-1, immunized Mannitol Intraplantar, 45 hr): 7.22
- IL-10 mRNA Expression [4, 9]: 0.7 fold change vs control
- IL-10 mRNA Expression [4, 13]: 1.0 fold change vs control
- IL-10 mRNA Expression [4, 17]: 0.3 fold change vs control
- IL-2 secretion response ratio (treated cell medium to control DCCM1 medium) [5, 19]: 1.13
- IL-2 secretion response ratio (treated cell medium to control DCCM1 medium) [5, 20]: 1.18
- IL-2 secretion response ratio (treated cell medium to control DCCM1 medium) [5, 21]: 1.30
- IL-2 secretion response ratio (treated cell medium to control DCCM1 medium) ([5]; CD-1, immunized GA Lower Limb): 1.29

— US10344330B2, “Glatiramer acetate response biomarker mRNA potency assay” (Mylan Inc., priority 2013, dated 2019)
